Test results reported in patent publication US9156916.

Key:
[1] = target: human surface membrane immunoglobulin D (smIgD) (human) (UniProt P01880); experiment: flow cytometry, dual labelling of human PBMC (CD14 and IgD)
[2] = target: human surface membrane immunoglobulin D (smIgD) (human) (UniProt P01880); experiment: flow cytometry, dual labelling of human PBMC (CD3 and IgD)
[3] = target: human surface membrane immunoglobulin D (smIgD) (human) (UniProt P01880); experiment: cell-based or functional assay

UniProt P01880, sequence (P01880 whole entry): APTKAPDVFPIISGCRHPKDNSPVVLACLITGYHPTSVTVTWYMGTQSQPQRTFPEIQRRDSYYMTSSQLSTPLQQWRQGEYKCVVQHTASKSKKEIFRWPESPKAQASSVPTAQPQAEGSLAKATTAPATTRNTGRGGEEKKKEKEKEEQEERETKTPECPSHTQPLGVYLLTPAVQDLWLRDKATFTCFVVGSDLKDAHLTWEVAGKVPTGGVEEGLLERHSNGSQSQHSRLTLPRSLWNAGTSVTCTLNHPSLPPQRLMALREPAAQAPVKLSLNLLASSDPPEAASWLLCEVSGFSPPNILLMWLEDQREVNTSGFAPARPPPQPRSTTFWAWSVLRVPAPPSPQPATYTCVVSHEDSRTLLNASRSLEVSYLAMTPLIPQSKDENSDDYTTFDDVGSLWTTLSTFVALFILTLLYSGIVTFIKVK

Substance | percent of CD14+ cells labelled for smIgD [1] [%] | percent of CD3+ T-cells labelled for smIgD [2] [%] | proportion of human monocyte population expressing intra-cellular TNF-α after LPS, antibody given 24 hrs before LPS (flow cytometry) [3] [%] | proportion of human monocyte population expressing intra-cellular TNF-α, antibody given concurrently with LPS for 4 hours (flow cytometry) [3] [%]
goat FITC-conjugated anti-human IgD antibody (clone STAR94F) | 54 | 10 |  | 
anti-human smIgD antibody (clone STAR94, Serotec, Oxford, UK) |  |  | 5 | 26
